For five molecules, Kd, koff and kon results are on record in US20260217860A1 (BIOCYTOGEN PHARMACEUTICALS BEIJING, published 2026).

In general, Kd refers to the concentration at which binding is half-saturated. The low end stands for higher affinity, the high end for lower affinity. As a reminder, the koff is the rate constant with which the complex falls apart. Higher therefore signals a short-lived complex. By kon is commonly meant a measure of how fast the partners come together.

The labels stand for the following.
B1: E-9A6-M-11E8 (bispecific antibody)
heavy 1: not shown
heavy 2: QVQLVQSGGGVVQPGRSLRLSCAASGFTFSSYAMHWVRQAPGKGLEWVAVISDDGINKYYADSVKGRFTISRDNSKNTLYLQMNSLRAEDSAVYYCARALPTIFGVVMYFYYGLDVWGQGTTATVSSASTKGPSVFPLAPSSKSTSGGTAALGCLVKDYFPEPVTVSWNSGALTSGVHTFPAVLQSSGLYSLSSVVTVPSSSLGTQTYICNVNHKPSNTKVDKKVEPKSCDKTHTCPPCPAPELLGGPSVFLFPPKPKDTLMISRTPEVTCVVVDVSHEDPEVKFNWYVDGVEVHNAKTKPREEQYNSTYRVVSVLTVLHQDWLNGKEYKCKVSNKALPAPIEKTISKAKGQPREPQVCTLPPSREEMTKNQVSLSCAVKGFYPSDIAVEWESNGQPENNYKTTPPVLDSDGSFFLVSKLTVDKSRWQQGNVFSCSVMHEALHNHYTQKSLSLSPGK
light: not shown
notes: Knobs-into-holes bispecific with a common light chain; also called anti-EGFR/MUC1 bispecific antibody
B2: E-9F3-M-11E8 (bispecific antibody)
heavy 1: not shown
heavy 2: QVQLVQSGGGVVQPGRSLRLSCAASGFTFSSYAMHWVRQAPGKGLEWVAVISDDGINKYYADSVKGRFTISRDNSKNTLYLQMNSLRAEDSAVYYCARALPTIFGVVMYFYYGLDVWGQGTTATVSSASTKGPSVFPLAPSSKSTSGGTAALGCLVKDYFPEPVTVSWNSGALTSGVHTFPAVLQSSGLYSLSSVVTVPSSSLGTQTYICNVNHKPSNTKVDKKVEPKSCDKTHTCPPCPAPELLGGPSVFLFPPKPKDTLMISRTPEVTCVVVDVSHEDPEVKFNWYVDGVEVHNAKTKPREEQYNSTYRVVSVLTVLHQDWLNGKEYKCKVSNKALPAPIEKTISKAKGQPREPQVCTLPPSREEMTKNQVSLSCAVKGFYPSDIAVEWESNGQPENNYKTTPPVLDSDGSFFLVSKLTVDKSRWQQGNVFSCSVMHEALHNHYTQKSLSLSPGK
light: not shown
notes: as for B1
B3: E-9D2-M-11E8 (bispecific antibody)
heavy 1: not shown
heavy 2: QVQLVQSGGGVVQPGRSLRLSCAASGFTFSSYAMHWVRQAPGKGLEWVAVISDDGINKYYADSVKGRFTISRDNSKNTLYLQMNSLRAEDSAVYYCARALPTIFGVVMYFYYGLDVWGQGTTATVSSASTKGPSVFPLAPSSKSTSGGTAALGCLVKDYFPEPVTVSWNSGALTSGVHTFPAVLQSSGLYSLSSVVTVPSSSLGTQTYICNVNHKPSNTKVDKKVEPKSCDKTHTCPPCPAPELLGGPSVFLFPPKPKDTLMISRTPEVTCVVVDVSHEDPEVKFNWYVDGVEVHNAKTKPREEQYNSTYRVVSVLTVLHQDWLNGKEYKCKVSNKALPAPIEKTISKAKGQPREPQVCTLPPSREEMTKNQVSLSCAVKGFYPSDIAVEWESNGQPENNYKTTPPVLDSDGSFFLVSKLTVDKSRWQQGNVFSCSVMHEALHNHYTQKSLSLSPGK
light: not shown
notes: as for B1
B4: E-9H2-M-11E8 (bispecific antibody)
heavy 1: not shown
heavy 2: QVQLVQSGGGVVQPGRSLRLSCAASGFTFSSYAMHWVRQAPGKGLEWVAVISDDGINKYYADSVKGRFTISRDNSKNTLYLQMNSLRAEDSAVYYCARALPTIFGVVMYFYYGLDVWGQGTTATVSSASTKGPSVFPLAPSSKSTSGGTAALGCLVKDYFPEPVTVSWNSGALTSGVHTFPAVLQSSGLYSLSSVVTVPSSSLGTQTYICNVNHKPSNTKVDKKVEPKSCDKTHTCPPCPAPELLGGPSVFLFPPKPKDTLMISRTPEVTCVVVDVSHEDPEVKFNWYVDGVEVHNAKTKPREEQYNSTYRVVSVLTVLHQDWLNGKEYKCKVSNKALPAPIEKTISKAKGQPREPQVCTLPPSREEMTKNQVSLSCAVKGFYPSDIAVEWESNGQPENNYKTTPPVLDSDGSFFLVSKLTVDKSRWQQGNVFSCSVMHEALHNHYTQKSLSLSPGK
light: not shown
notes: Knobs-into-holes bispecific with a common light chain; also called anti-EGFR/MUC1 bispecific antibody; E-9H2-M-llE8
B5: E-6C4-M-11E8 (bispecific antibody)
heavy 1: not shown
heavy 2: QVQLVQSGGGVVQPGRSLRLSCAASGFTFSSYAMHWVRQAPGKGLEWVAVISDDGINKYYADSVKGRFTISRDNSKNTLYLQMNSLRAEDSAVYYCARALPTIFGVVMYFYYGLDVWGQGTTATVSSASTKGPSVFPLAPSSKSTSGGTAALGCLVKDYFPEPVTVSWNSGALTSGVHTFPAVLQSSGLYSLSSVVTVPSSSLGTQTYICNVNHKPSNTKVDKKVEPKSCDKTHTCPPCPAPELLGGPSVFLFPPKPKDTLMISRTPEVTCVVVDVSHEDPEVKFNWYVDGVEVHNAKTKPREEQYNSTYRVVSVLTVLHQDWLNGKEYKCKVSNKALPAPIEKTISKAKGQPREPQVCTLPPSREEMTKNQVSLSCAVKGFYPSDIAVEWESNGQPENNYKTTPPVLDSDGSFFLVSKLTVDKSRWQQGNVFSCSVMHEALHNHYTQKSLSLSPGK
light: not shown
notes: as for B1

The target of the test is T1, His-tagged human MUC1 protein hMUC1(24-1158)-His (human, UniProt P15941 24-1158).
T1 construct: not shown: His tag
The test can be described thus: SPR, Biacore 8K, 1:1 fit.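 Also: His-tagged targets captured on the chip at roughly 100 RU, antibody analytes flowed at 1 µg/mL in HBS-EP+ pH 7.4, 50 s association, 400 s dissociation.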 In general terms: SPR reads the build-up and loss of mass on a sensor chip optically.
Molecule B1 gave a Kd of 17.3 nM, a koff of 0.00137 s⁻¹ and a kon of 79100 M⁻¹ s⁻¹.
Take B2: binding was put at a Kd of 5.24 nM, the koff was determined as 0.000543 s⁻¹ and the kon is 104000 M⁻¹ s⁻¹.
On the same counts, the results for B3 are 5.97 nM, 0.000554 s⁻¹ and 92700 M⁻¹ s⁻¹.
B4 registered a Kd of 25.4 nM, a koff of 0.0101 s⁻¹ and a kon of 400000 M⁻¹ s⁻¹.
For B5 the same measures were 6.21 nM, 0.000575 s⁻¹ and 92700 M⁻¹ s⁻¹.
